Earlier results as cited in article PMC10651016.

System: Lys110
Assay: kinetics
Conditions: steady-state turnover with L-proline; FAD-bound enzyme

Substance: L-proline dehydrogenase (ProDH) (Mycobacterium tuberculosis)
- pKa: 6.8
